Reference: article PMC5691136 (2017)

Molecular target: PS372424 (CXCR3 agonist)

Kd: 40 nM
B1: CXCR3-A expressed from pEGFPN2 in HEK-293 cells (HEK-CXCR3-A) (receptor)
chain: MVLEVSDHQVLNDAEVAALLENFSSSYDYGENESDSCCTSPPCPQDFSLNFDRAFLPALYSLLFLLGLLGNGAVAAVLLSRRTALSSTDTFLLHLAVADTLLVLTLPLWAVDAAVQWVFGSGLCKVAGALFNINFYAGALLLACISFDRYLNIVHATQLYRRGPPARVTLTCLAVWGLCLLFALPDFIFLSAHHDERLNATHCQYNFPQVGRTALRVLQLVAGFLLPLLVMAYCYAHILAVLLVSRGQRRLRAMRLVVVVVVAFALCWTPYHLVVLVDILMDLGALARNCGRESRVDVAKSVTSGLGYMHCCLNPLLYAFVGVKFRERMWMLLLRLGCPNQRGLQRQPSSSRRDSSWSETSEASYSGL
